Drawing on patent US20210230288A1, this text covers ELISA absorbance for one molecule.

Assay [1] deals with IgG Fc (control). In words: phage ELISA on control (IgG Fc), lower end. (ELISA stands for enzyme-linked immunosorbent assay.)
Assay [2] has as its target IgG Fc (control). Kind of assay: phage ELISA on control (IgG Fc), upper end.
Assay [3] deals with IgG Fc (control). Kind of assay: phage ELISA on control (IgG Fc), 89 identical clones.

B1: bb10 (SEQ ID NO 19), phage clone (designed binder)
chain: MGSWAEFKQRLAAIKTRLEALGGSEAELAAFLGEIWAFEMELAAYKGKGNPEVEALGREAAAIRMELQAYRHN
For the molecule B1, the ELISA absorbance with IgG Fc (control) [1] is 0.056 OD; in the assay with IgG Fc (control) [2], 0.125 OD; in the assay with IgG Fc (control) [3], 0.067 OD.
